Data on three substances can be found in paper PMC5497066.

Bounds are passed on as bounds.

Assay [1] addresses C-terminal truncation mutant of tetradecamer GroEL, Δ526 (E. coli) (UniProt P0A6F5).
The target is the same in assay [2]. The assay can be described thus: cryo-EM structure; acid-urea denatured PepQ (7 μM final) titrated into GroEL or Δ526 (8 μM tetradecamers) in TKM buffer, no nucleotide, room temperature 5 min; asymmetric 3D classification and refinement.
The target in assay [3] is PepQ-24TMR (E. coli) (UniProt P21165). As to the kind of experiment: single-molecule two-colour co-incidence detection; PepQ-24OG and PepQ-24TMR 1:1, denatured in acid-urea, spontaneous folding at 2 nM monomer in TKM buffer with 0.1 mg ml^-1 BSA, 23 °C, 10 min, then diluted 20-fold to 100 pM.
The target is the same in assay [4]. The assay can be described thus: single-molecule two-colour co-incidence detection; PepQ-24OG and PepQ-24TMR 1:1, denatured, refolded at 100 nM total monomer with GroEL, GroES and ATP at 23 °C, then diluted 1,000-fold to 100 pM; cross-correlation of fluorescence bursts.

Take “wild type E. coli PepQ (from UniProt P21165 1-443) (enzyme)”: the observed folding rate constant of PepQ by recovery of enzymatic activity, bound to Δ526 (200 nM) and refolded with GroES (400 nM) and ATP (2 mM) in assay [1] came out at 0.106 min⁻¹. Broadly, the stoichiometry N is the number of molecules, sites or subunits per partner or assembly. As for “C-terminal truncation mutant of tetradecamer GroEL, Δ526 (from UniProt P0A6F5 2-526) (domain or fragment)”, in assay [2], the stoichiometry N amounted to 14.

For the substance “PepQ-24OG (from UniProt P21165 1-443) (enzyme)”, in the assay with PepQ-24TMR (E. coli) [3], the co-incidence is under 1% and the co-incidence (most likely overlap) was 0.75%. Besides, the coincident fraction with PepQ-24TMR (E. coli) [4] stood at 10%.
